Data published in patent US20210277441A1, “METHOD OF SELECTING A POLYPEPTIDE OF INTEREST” (IMPERIAL COLLEGE INNOVATIONS LIMITED, priority 2018, published 2021).

What was measured:
[1] = substrate: CC(C)O; experiment: purified protein, by the assay type; format: biochemical, Clostridium beijerinckii; settings: other: cofactor NADP+ (1 mM); enzyme 110 nM
[2] = substrate: CC1=NCCC1; experiment: Kinetics of parental MsIRED, 2-methylpyrroline reduction with NADPH; format: biochemical, Myxococcus stipitatus; settings: other: cofactor NADPH (0.25 mM); enzyme 1.2 uM
[3] = substrate: CC1=NCCC1; experiment: Kinetics of evolved MsIRED-s, 2-methylpyrroline reduction with NADH; format: biochemical, Myxococcus stipitatus; settings: other: cofactor NADH (0.25 mM); enzyme 1.25 uM

B1: Clostridium beijerinckii alcohol dehydrogenase (CBADH), wild type, SEQ ID NO: 1 (Clostridium beijerinckii) (protein)
chain: MKGFAMLGINKLGWIEKERPVAGSYDAIVRPLAVSPCTSDIHTVFEGALGDRKNMILGHEAVGEVVEVGSEVKDFKPGDRVIVPCTTPDWRSLEVQAGFQQHSNGMLAGWKFSNFKDGVFGEYFHVNDADMNLAILPKDMPLENAVMITDMMTTGFHGAELADIQMGSSVVVIGIGAVGLMGIAGAKLRGAGRIIGVGSRPICVEAAKFYGATDILNYKNGHIVDQVMKLTNGKGVDRVIMAGGGSETLSQAVSMVKPGGIISNINYHGSGDALLIPRVEWGCGMAHKTIKGGLCPGGRLRAEMLRDMVVYNRVDLSKLVTHVYHGFDHIEEALLLMKDKPKDLIKAVVIL
Question: B1 was tested. Which Km [1] did it give?
Answer: The Km was 5.80 mM mM.

Question: What about the kcat [1] of the same protein?
Answer: Its kcat is 1185.6 min-1 min-1.

B2: Myxococcus stipitatus imine reductase (MsIRED), wild type, SEQ ID NO: 34 (Myxococcus stipitatus DSM 14675) (protein)
chain: MKPTLTVIGAGRMGSALIKAFLQSGYTTTVWNRTKAKSEPLAKLGAHLADTVRDAVKRSDIIVVNVLDYDTSDQLLRQDEVTRELRGKLLVQLTSGSPALAREQETWARQHGIDYLDGAIMATPDFIGQAECALLYSGSAALFEKHRAVLNVLGGATSHVGEDVGHASALDSALLFQMWGTLFGTLQALAISRAEGIPLEKTTAFIKLTEPVTQGAVADVLTRVQQNRLTADAQTLASLEAHNVAFQHLLALCEERNIHRGVADAMYSVIREAVKAGHGKDDFAILTRFLK
Question: Which results are given for B2?
Answer: Km [2]: 3.56 mM mM; kcat [2]: 89.8 min-1 min-1

B3: Myxococcus stipitatus imine reductase (MsIRED) variant MsIRED-s (pLS133_1), N32E/R33V/T34R/K37R, SEQ ID NO: 35 (Myxococcus stipitatus DSM 14675; … (protein)
chain: MKPTLTVIGAGRMGSALIKAFLQSGYTTTVWEVRKARSEPLAKLGAHLADTVRDAVKRSDIIVVNVLDYDTSDQLLRQDEVTRELRGKLLVQLTSGSPALAREQETWARQHGIDYLDGAIMATPDFIGQAECALLYSGSAALFEKHRAVLNVLGGATSHVGEDVGHASALDSALLFQMWGTLFGTLQALAISRAEGIPLEKTTAFIKLTEPVTQGAVADVLTRVQQNRLTADAQTLASLEAHNVAFQHLLALCEERNIHRGVADAMYSVIREAVKAGHGKDDFAILTRFLK
Question: Which results are given for B3?
Answer: Km [3]: 19.57 mM mM; kcat [3]: 78.1 min-1 min-1
